Substitutions are numbered along the chain they refer to.

For assay [1], the target named is T1, human OX40 on the cell surface (activated human T cells; HeLa_hOx40_NFkB_Luc1 reporter cells) (human, UniProt P43489 29-277).
T1 sequence: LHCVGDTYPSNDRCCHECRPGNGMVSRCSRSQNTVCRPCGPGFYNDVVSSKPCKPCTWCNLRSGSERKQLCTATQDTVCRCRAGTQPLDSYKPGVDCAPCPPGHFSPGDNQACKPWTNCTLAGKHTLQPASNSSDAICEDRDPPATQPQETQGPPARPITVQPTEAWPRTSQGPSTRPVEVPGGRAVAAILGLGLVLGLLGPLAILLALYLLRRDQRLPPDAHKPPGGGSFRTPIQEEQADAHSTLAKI
As to the kind of experiment: cell-based or functional assay.

Assay [2] has as its target T1, human OX40 on the cell surface …. As to the kind of experiment: cell-based or functional assay. The source holds these as a separate data set.
The target is the same in assay [3]. As to the kind of experiment: cell-based or functional assay. This is another data set of the same source.
Assay [4] has the same target. As to the kind of experiment: cell-based or functional assay. This is another data set of the same source.
The target of assay [5] is T2, human fibroblast activation protein (huFAP) on NIH/3T3-huFAP clone 19 cells (human, UniProt Q12884 1-760).
T2 construct: Mouse NIH/3T3 fibroblasts transfected with vector pETR4921 to express huFAP; also called cell surface FAP
As to the kind of experiment: flow cytometry, NIH/3T3-huFAP clone 19 cells. As to the method:
In another experiment, a mixture of 2 × 10⁵ NIH/3T3-huFAP clone 19 cells and HeLa cells in FACS buffer were added to each well of a round-bottom 96-well plates (TPP, Cat. No. 92097) and the binding assay was performed. Cells were first stained 20 min with LIVE/DEAD™ Fixable Aqua Dead Cell Stain (Molecular probes, Cat.No. L34957) in DPBS, followed after one washing step with 200 µL 4° C. […] Afterwards the cells were washed once with 200 µL FACS buffer at 4° C. and resuspended by a short vortex. Cells were further stained with 50 µL/well of 4° C. cold secondary antibody solution containing Phycoerythrin (PE)-conjugated AffiniPure anti-human IgG Fcy-fragment-specific goat IgG F(ab′)2 fragment (Jackson ImmunoResearch, Cat. No. 109-116-098) and incubated for 30 minutes at 4° C. in the dark. Samples were finally resuspended in 100 µL/well FACS-buffer and acquired the same day using with BD Fortessa running FACS Diva software.

The target in assay [6] is T1, human OX40 on the cell surface …. As to the kind of experiment: flow cytometry, activated human PBMC gated on CD4+ T cells.
Assay [7] has as its target T3, FcRn (biotinylated, coupled to streptavidin-sepharose).
T3 construct: also called neonatal Fc receptor
As to the kind of experiment: FcRn affinity chromatography; retention compared to protein standards with known affinities. As to the method: For coupling, the prepared receptor was added to streptavidin-sepharose (GE Healthcare). The resulting FcRn-sepharose matrix was packed in a column housing. The column was equilibrated with 20 mM 2-(N-morpholine)-ethanesulfonic acid (MES) and 140 mM NaCl, pH 5.5 (eluent A) at a 0.5 ml/min flow rate. 30 µg of antibody samples were diluted at a volume ratio of 1: 1 with eluent A and applied to the FcRn column. The column was washed with 5 column volumes of eluent A followed by elution with a linear gradient from 20 to 100% 20 mM Tris/HCl and 140 mM NaCl, pH 8.8 (eluent B) in 35 column volumes. The analysis was performed with a column oven at 25° C. The elution profile was monitored by continuous measurement of the absorbance at 280 nm. Retention times were compared to protein standards with known affinities.

T3 sequence (P55899 24-297, chain 1 of 2): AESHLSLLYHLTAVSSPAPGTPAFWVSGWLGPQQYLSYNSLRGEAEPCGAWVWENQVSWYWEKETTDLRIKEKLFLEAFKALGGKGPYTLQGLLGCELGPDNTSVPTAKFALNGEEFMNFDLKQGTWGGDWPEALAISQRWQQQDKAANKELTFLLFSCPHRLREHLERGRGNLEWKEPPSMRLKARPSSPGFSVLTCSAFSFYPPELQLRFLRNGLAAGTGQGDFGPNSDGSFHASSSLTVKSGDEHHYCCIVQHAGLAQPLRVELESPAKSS
T3 sequence (P61769 21-119, chain 2 of 2, further chain): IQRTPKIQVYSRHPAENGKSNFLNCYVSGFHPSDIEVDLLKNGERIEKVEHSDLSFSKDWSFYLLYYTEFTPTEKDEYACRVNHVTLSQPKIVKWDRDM

B1: P1AF6455 OX40(CLC563) x FAP(1G1a_EPKSCS) 3+1 (bispecific antibody, human IgG1, kappa, L234A L235A)
heavy 1: not shown
heavy 2: not shown
light 1: not shown
light 2: EIVLTQSPATLSLSPGERATLSCRASESVDNYGLSFINWFQQKPGQAPRLLIYGTSNRGSGIPARFSGSGSGTDFTLTISSLEPEDFAVYFCQQSNEVPYTFGGGTKVEIKSSASTKGPSVFPLAPSSKSTSGGTAALGCLVKDYFPEPVTVSWNSGALTSGVHTFPAVLQSSGLYSLSSVVTVPSSSLGTQTYICNVNHKPSNTKVDKKVEPKSCS
notes: Human IgG1 Fc, knob-into-hole, PGLALA; also called CLC-563, S-variant 3+1
As for B1, in assay [1], the “EC50 of NFκB activation (luciferase), HeLa_hOx40_NFkB_Luc1, w/ hu FAP” value is 0.2 nM and the “EC50 of NFκB activation (luciferase), HeLa_hOx40_NFkB_Luc1, w/o” value was 0.8 nM. In assay [2], the “EC50 of CD25 upregulation on CD4+ T cells, suboptimal TCR stimulation of human PBMC with NIH/3T3-huFAP cells” value came to 0.003 nM. The “EC50 of increased TCB mediated cytokine secretion following FAP-OX40 costimulation of primary human PBMCs” value in assay [3] worked out at 0.058 nM. Further, in assay [4], the “EC50 of suppression of FoxP3 induction (FoxP3 MFI) on TGFβ-exposed CD4 T cells, FAP-coated beads” value was 0.25 nM. In assay [5], this molecule gave an EC50 of 1.71 nM. Further, it took 1.47 nM to reach a half-maximal effect in assay [6] (EC50). In assay [7], this molecule returned a FcRn affinity of -0.1.

B2: P1AF6454 OX40 (CLC563) x FAP (1G1a_EPKSCD) (3+1) C-terminal crossfab fusion (bispecific antibody, human IgG1, kappa, L234A L235A)
heavy 1: not shown
heavy 2: not shown
light 1: not shown
light 2: B1 light 2 with S217D
notes: 3+1 format; Human IgG1 Fc, knob-into-hole, PGLALA; VL-CH1 chain ends in EPKSCD; also called CLC-563, D-variant 3+1; 3+1 CLC563/H212-D
For the molecule B2, in assay [1], the “EC50 of NFκB activation (luciferase), HeLa_hOx40_NFkB_Luc1, w/ hu FAP” value was found to be 0.2 nM and the “EC50 of NFκB activation (luciferase), HeLa_hOx40_NFkB_Luc1, w/o” value stood at 1.9 nM. Also, the “EC50 of CD25 upregulation on CD4+ T cells, suboptimal TCR stimulation of human PBMC with NIH/3T3-huFAP cells” value in assay [2] was 0.001 nM. Also, in assay [3], the “EC50 of increased TCB mediated cytokine secretion following FAP-OX40 costimulation of primary human PBMCs” value amounted to 0.144 nM. Also, the “EC50 of suppression of FoxP3 induction (FoxP3 MFI) on TGFβ-exposed CD4 T cells, FAP-coated beads” value in assay [4] was determined as 0.11 nM. It took 1.22 nM to reach a half-maximal effect in assay [5] (EC50). Moreover, the response in assay [6] was half-maximal at 1.64 nM (EC50). In addition, the FcRn affinity in assay [7] is -0.1.

The values above are taken from US20230227584A1 (published 2023).
